A word on the EC50: it is the concentration giving half of the maximal effect. Read a high EC50 as a need for much substance.

The target of experiment [1] is MBP.NS1 H1N1 (RSEV) (influenza A H1N1) (UniProt A3DRP6). Description: G assay titration.
For experiment [2], the target named is MBP.NS1 H3N2 (RSKV) (influenza A H3N2) (UniProt Q67253). Description: G assay titration.
The target of experiment [3] is Peptide 1958 H5N1A (EPEV) (influenza A H5N1). Description: G assay titration.
The target of experiment [4] is MBP.NS1 H5N1A (EPEV) (influenza A H5N1) (UniProt O56264). Description: G assay titration.
Experiment [5] has as its target MBP.NS1 H5N1B (ESEV) (influenza A H5N1) (UniProt Q6DP28). Description: G assay titration.
Experiment [6] deals with MBP.NS1 H1N1 (RSEV) (influenza A H1N1) (UniProt A3DRP6). Description: direct binding assay titration.
Experiment [7] addresses MBP.NS1 H3N2 (RSKV) (influenza A H3N2) (UniProt Q67253). Description: direct binding assay titration.
In experiment [8] the target is MBP.NS1 H5N1A (EPEV) (influenza A H5N1) (UniProt O56264). Description: direct binding assay titration.
Experiment [9] deals with MBP.NS1 H5N1B (ESEV) (influenza A H5N1) (UniProt Q6DP28). Description: direct binding assay titration.
Experiment [10] deals with MBP.NS1 H1N1 (RSEV) (influenza A H1N1) (UniProt A3DRP6). Description: titration, direct binding sandwich assay.
In experiment [11] the target is MBP.NS1 H5N1A (EPEV) (influenza A H5N1) (UniProt O56264). Description: titration, direct binding sandwich assay.
The target of experiment [12] is MBP.NS1 H5N1B (ESEV) (influenza A H5N1) (UniProt Q6DP28). Description: titration, direct binding sandwich assay.
Experiment [13] has as its target MBP.NS1 H3N2 (RSKV) (influenza A H3N2) (UniProt Q67253). Description: titration, direct binding sandwich assay.

On to Magi3 d1 (from UniProt Q5TCQ9 18-106), for which the EC50 in experiment [1] came to 3.1 µg/mL; in experiment [2], 3 µg/mL.

PSD95 d2 (from UniProt P31016 160-246) registered an EC50 in [3] of 3.8 µg/mL.

Turning to “Outer Membrane Protein (from UniProt P08515 1-218)”, the EC50 in experiment [1] came out at 1.2 µg/mL; in experiment [2], 13 µg/mL; in experiment [4], 27 µg/mL; in experiment [5], 0.2 µg/mL; in experiment [6] it was 6 µg/mL; in experiment [7] it was 3 µg/mL. Also, the concentration for a half-maximal effect (EC50) in [8] worked out at 12.5 µg/mL; in experiment [9] it was 0.8 µg/mL; in experiment [10], 1.25 µg/mL; in experiment [11], 12.6 µg/mL; in experiment [12] it was 0.18 µg/mL.

As to “NeDLG d1,2 (from UniProt Q92796 124-316)”, the EC50 in experiment [1] is 1.1 µg/mL; in [2] it was above 50 µg/mL.

In the case of “INADL d8 (from UniProt Q8NI35 1431-1525)”, the values for the EC50 in experiment [1], in experiment [2] and in experiment [13] were 3.2 µg/mL, 0.9 µg/mL and 0.869 µg/mL, respectively.

Regarding “MAST2 d1 (from UniProt Q6P0Q8 1098-1197)”, the EC50 was 2 µg/mL in experiment [1], above 50 µg/mL in experiment [2] and 5.5 µg/mL in experiment [3].

(Values after patent publication US20070161078A1.)
